The target of this assay is human MASP-2 (human, UniProt O00187 16-686). Kind of assay: cell-based or functional assay.

This is an account of results in patent US20210077621A1 (published 2021).

Sequence of human MASP-2 (O00187 16-686): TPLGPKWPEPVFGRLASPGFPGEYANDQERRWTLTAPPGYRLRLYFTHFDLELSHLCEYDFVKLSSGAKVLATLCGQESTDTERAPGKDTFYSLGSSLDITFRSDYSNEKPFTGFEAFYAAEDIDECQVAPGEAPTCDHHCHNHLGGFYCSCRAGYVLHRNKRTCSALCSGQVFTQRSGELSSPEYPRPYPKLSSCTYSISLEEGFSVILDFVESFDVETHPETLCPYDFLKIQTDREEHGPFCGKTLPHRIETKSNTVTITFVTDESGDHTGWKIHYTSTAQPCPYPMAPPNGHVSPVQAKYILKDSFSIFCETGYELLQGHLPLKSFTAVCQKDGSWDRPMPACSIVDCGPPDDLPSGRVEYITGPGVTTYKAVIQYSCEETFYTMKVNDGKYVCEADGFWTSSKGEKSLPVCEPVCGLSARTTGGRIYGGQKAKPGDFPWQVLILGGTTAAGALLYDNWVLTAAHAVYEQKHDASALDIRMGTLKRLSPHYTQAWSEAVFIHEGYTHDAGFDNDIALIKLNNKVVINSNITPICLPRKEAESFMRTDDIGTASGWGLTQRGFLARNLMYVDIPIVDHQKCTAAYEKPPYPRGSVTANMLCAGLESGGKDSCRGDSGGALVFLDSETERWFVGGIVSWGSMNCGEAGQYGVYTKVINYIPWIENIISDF

B1: 17D20m_d3521N11 (scFv, V domains shown)
VH: QVTLKESGPVLVKPTETLTLTCTVSGFSLSRGKMGVSWIRQPPGKALEWLAHIFSSDEKSYRTSLKSRLTISKDTSKNQVVLTMTNMDPVDTATYYCARIRRGGIDYWGQGTLVTVSS
VL: SYELIQPPSVSVAPGQTATITCAGDNLGKKRVHWYQQRPGQAPVLVIYDDSDRPSGIPDRFSASNSGNTATLTITRGEAGDEADYYCQVWDIATDHVVFGGGTKLTVL
With B1, the “1% human serum C3 assay (IC50 nM)” value came to 26 nM, the “90% human serum C3 assay (IC50 nM)” value was over 1000 nM and the “90% human serum C4 assay (IC50 nM)” value was 140 nM.
